Assay results reported in the nanobody polyreactivity screen of Harvey et al. (2022).

Assay: yeast display, Sf9 membrane polyspecificity reagent, FACS + sequencing; frameworks hold sequencing errors
In short: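 Galactose induction of a Saccharomyces cerevisiae BJ5465 synthetic nanobody display library ran 36–48 hours. The cells were then stained for 1 hour at 4 °C with 10% biotinylated, detergent-solubilized Sf9 membrane reagent, pulled down on streptavidin microbeads and FACS-sorted into low and high (top ~1%) gates on expression and reagent-binding fluorescence. Labels for polyreactivity follow the gate of origin.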

Row | Sequence | polyreactivity (PSR sort gate)
1 | QVQLVESGGGLVQAGGSLRLSCAASGRTFFFYAMGWYRQAPGKERELVADITWSDGTTYYAESVKGRFTISRDNAKNTVYLQMNSLKPEDTAVYYCAKVRTGQSRSVGYDYWGQGTQVTVSS | low polyreactivity
2 | QVQLVESGGGLVQAGGSLRLSCAASGRTFFGYAMGWYRQAPGKERELVAAISSGGSTYYADSVKGRFTISRDNAKNTVYLQMNSLKPEDTAVYYCAARSFTTRRSVIRNYWGQGTQVTVSS | high polyreactivity
3 | QVQLVESGGGLVQAGGSLRLSCAASGRTFFGYARGWYRQAPGKEREFVARISWRGTSTTYADSVKGRFTISRDNAKNTVYLEMNSLKPEDTAVYYCAASPYGLRVYFTVGYWGQGTQVTVSS | high polyreactivity
4 | QVQLVESGGGLVQAGGSLRLSCAASGRTFFKNAMGWYRQAPGKERELVAAITSSGGTTYYADSVKGRFTISRDNAKNTVYLQMISLKPEDTAVYYCATRKYPIRYGYGYWGQGTQVTVSS | high polyreactivity
5 | QVQLVESGGGLVQAGGSLRLSCAASGRTFFKYAMGGYRQAPGKERELVAAITGRGDRTYYADSVKGRFTISRDNAKNTVYLQMNSLKPEDTAVYYCAAGAPAHHASFYYWGQGTQVTVSS | high polyreactivity
6 | QVQLVESGGGLVQAGGSLRLSCAASGRTFFKYAMGWYRQAPGKERELVAAITWGGDRTFYADSVKGRFTISRDNAKNTVYLQMNSMKADETAVYYCAAEVLPNVYVYQSARGFYYWGQGTQVTVSS | high polyreactivity
7 | QVQLVESGGGLVQAGGSLRLSCAASGRTFFPYAMGWYRPAPGKEREFVAAITKTDDSTYYADSVKGRFTISRDNAKNTVYLQMNSLKPEDTAVYYCNAGDTQIRFYYWGQGTQVTVSS | low polyreactivity
8 | QVQLVESGGGLVQAGGSLRLSCAASGRTFFPYAMGWYRQAAGKERELVDAISLDDDTTYYADSVKGRFTISRDTAQNTVYLQMNSLKPEDTAVYYCATDGIVIYGGYYTGYDYWGQGTQVTVSS | high polyreactivity
9 | QVQLVESGGGLVQAGGSLRLSCAASGRTFFPYVMGWYRQAPGKERELVATITWGGVSTYYADSVKGRFTISRDNAKNTVYLQMNSLKPEDTAVYYCAARYYRWRTIPEYYYWGQGTQVTVSS | high polyreactivity
10 | QVQLVESGGGLVQAGGSLRLSCAASGRTFFRYAMGWYRQAPGKERELVAAISSRGGSTYYADSVKGRFTISRDNAKNTVYLQMNSLKPEDTAVYYCNADAFINFILYDYWGQGTQVTVSS | high polyreactivity
11 | QVQLVESGGGLVQAGGSLRLSCAASGRTFFTNAMGWSRQAPGKERELVATISQSGGSTYYADSVKGRFTISRDNAKNTVYLQMNCLKPEDTAVYYCAALSRYWVVRMDYWGQGTHVTVSS | high polyreactivity
12 | QVQLVESGGGLVQAGGSLRLSCAASGRTFFTYAMGWYRQAPGKERELVAAITWSGGSTYYADSVKGRFTISRDNAKNTVYLQMNSLKPEDTAVYYCAADGSVAYYSAFGSVQIWYYYWGQGTQVTVSS | low polyreactivity
13 | QVQLVESGGGLVQAGGSLRLSCAASGRTFFVYAMGWYRQAPVKERELVAAISNTGGRTYYADSVKGRFTISRDNAKNTVYLQMNSLKPEDTAVYYCAAPYSGPYRSYEYYWGQGTQVTVSS | low polyreactivity
14 | QVQLVESGGGLVQAGGSLRLSCAASGRTFFVYTMGWYRQAPGKERELVAAITSDTSTTYADSVKGRFTISRDNAKNTVYLQMNSLKPEDTAVYYCAAEGYVGYYDYDYWGQGTQVTVSS | low polyreactivity
15 | QVQLVESGGGLVQAGGSLRLSCAASGRTFFWNAMGWYRQAPGKERELVATISRSGGSTYYADSVKGRFTISRDNAKNTVYLQMNSLKPEDTAVYYCAAQYVRRSRKYDYWGQGTQVTVSS | high polyreactivity
16 | QVQLVESGGGLVQAGGSLRLSCAASGRTFFWYAMGWYRQAPGKERELVADISSSGGSTYYADSVKGRFTISRDNAKNTVYLQMNSLKPEDTAVYYCAALSPWWRGGYNYWGQGTQVTVSS | high polyreactivity
17 | QVQLVESGGGLVQAGGSLRLSCAASGRTFFYNAMGWYRQAPGKERELVARITQSGVITYYADSVKGRFTISRDNAKNTVYLQMNSLKPEDTAVYYCNADDTYSPFRGVSYDYWGQGTQVTVSS | low polyreactivity
